The values that follow come from patent publication US20210169980A1 (HONG KONG UNIVERSITY OF SCIENCE AND TECHNOLOGY, published 2021).

Assay [1] has as its target T1, LC3B (human, UniProt Q9GZQ8 1-125). In words: ITC (table of Kd values).
The target in assay [2] is T2, LGG-2 (C. elegans, UniProt Q23536 1-130, limits assumed).
T2 construct: also called worm orthologue of LC3
T2 sequence (looked up): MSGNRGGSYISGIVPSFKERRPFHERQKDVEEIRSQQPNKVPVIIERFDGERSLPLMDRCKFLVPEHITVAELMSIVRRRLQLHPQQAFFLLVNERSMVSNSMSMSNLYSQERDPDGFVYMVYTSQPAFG
In words: ITC (table of Kd values).

The target of assay [3] is T3, LGG-1 (C. elegans, UniProt Q09490 1-123, limits assumed).
T3 construct: Purified protein in the ITC; also called worm orthologue of GABARAP
T3 sequence (Q09490 whole entry): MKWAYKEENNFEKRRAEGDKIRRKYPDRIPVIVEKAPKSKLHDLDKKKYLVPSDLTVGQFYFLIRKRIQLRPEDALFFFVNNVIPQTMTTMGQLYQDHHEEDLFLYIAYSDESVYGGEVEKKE
In words: ITC (table of Kd values).

The target in assay [4] is LC3A R70E. As to the kind of experiment: ITC.
LC3A R70E, sequence (chain, as listed by the source R70E R70E limits assumed): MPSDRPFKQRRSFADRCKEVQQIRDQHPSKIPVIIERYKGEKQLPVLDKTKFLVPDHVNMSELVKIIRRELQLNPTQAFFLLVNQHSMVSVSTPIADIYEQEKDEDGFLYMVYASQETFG
The target of assay [5] is GABARAP R67E. As to the kind of experiment: ITC. For orientation: Isothermal titration calorimetry measures the heat released or taken up as one component is titrated into another.
GABARAP R67E, sequence (chain, as listed by the source R67E R67E limits assumed): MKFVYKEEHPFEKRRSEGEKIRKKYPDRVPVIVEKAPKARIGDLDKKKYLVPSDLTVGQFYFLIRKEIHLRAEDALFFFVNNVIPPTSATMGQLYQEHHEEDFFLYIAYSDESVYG
Assay [6] concerns the target T4, LC3A (human, UniProt Q9H492 1-121). As to the kind of experiment: ITC.
Assay [7] deals with T1, LC3B. As to the kind of experiment: ITC.
For assay [8], the target named is T4, LC3A. As to the kind of experiment: ITC. This is another data set of the same source.
Assay [9] has as its target T5, LC3C (human, UniProt Q9BXW4 1-126). As to the kind of experiment: ITC.
Assay [10] deals with T6, GABARAP (human, UniProt O95166 1-117, limits assumed).
T6 construct: elsewhere only "mammalian"
T6 sequence (O95166 whole entry): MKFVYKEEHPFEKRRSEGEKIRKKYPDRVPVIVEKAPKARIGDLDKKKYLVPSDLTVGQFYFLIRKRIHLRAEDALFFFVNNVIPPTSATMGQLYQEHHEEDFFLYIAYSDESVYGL
As to the kind of experiment: ITC.

For assay [11], the target named is T7, GABARAPL2 (human, UniProt P60520 1-117, limits assumed).
T7 construct: also called GATE-16
T7 sequence (P60520 whole entry): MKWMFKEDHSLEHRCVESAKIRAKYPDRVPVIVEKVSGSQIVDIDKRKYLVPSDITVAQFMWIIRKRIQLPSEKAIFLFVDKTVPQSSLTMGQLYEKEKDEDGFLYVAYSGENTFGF
In words: ITC.

The target in assay [12] is T6, GABARAP. As to the kind of experiment: ITC. This is another data set of the same source.
Assay [13] has as its target T6, GABARAP. In words: ITC; ratio of the binding to GABARAP against that to LC3A.
Assay [14] deals with T2, LGG-2. In words: ITC.
The target of assay [15] is T4, LC3A. As to the kind of experiment: ITC. The source holds these as a separate data set.
Assay [16] deals with LC3A R70E. In words: ITC. The source holds these as a separate data set.
For assay [17], the target named is GABARAP R67E. In words: ITC. The source holds these as a separate data set.
The target of assay [18] is T4, LC3A. As to the kind of experiment: ITC. The source holds these as a separate data set.
For assay [19], the target named is T1, LC3B. As to the kind of experiment: ITC. This is another data set of the same source.
Assay [20] has as its target T5, LC3C. As to the kind of experiment: ITC. The source holds these as a separate data set.
The target in assay [21] is T7, GABARAPL2. As to the kind of experiment: competition-based ITC (asterisk; legend paragraph 51).
The target of assay [22] is [..]1 (human, UniProt Q9H0R8 1-117). The assay is described as above.
[..]1, sequence (Q9H0R8 whole entry): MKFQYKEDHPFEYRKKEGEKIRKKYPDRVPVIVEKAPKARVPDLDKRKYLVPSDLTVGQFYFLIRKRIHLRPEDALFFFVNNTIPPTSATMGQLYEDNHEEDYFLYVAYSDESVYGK
Assay [23] concerns the target T6, GABARAP. In words: ITC (table of Kd values).
Assay [24] deals with T6, GABARAP. In words: ITC. This is another data set of the same source.
Assay [25] addresses T3, LGG-1. In words: ITC.
Assay [26] addresses T6, GABARAP. In words: ITC; without the C-helix extension (LIR-S, aa 448-461).

Like-named read-outs stand apart in the source and are kept apart here.

T5 sequence (Q9BXW4 1-126, form in doubt): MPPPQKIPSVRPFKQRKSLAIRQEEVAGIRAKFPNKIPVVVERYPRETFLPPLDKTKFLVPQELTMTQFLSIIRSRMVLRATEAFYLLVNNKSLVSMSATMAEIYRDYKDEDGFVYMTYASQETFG

B1: AnkG LIR (AnkG WT peptide, rat 480 kD AnkG residues 1985-2010) (peptide)
peptide: PEDDWTEFSSEEIREARQAAASHAPS
Usually Kd stands for the free concentration of one partner at which half of the binding sites on the other are occupied at equilibrium, for simple one-to-one binding. On to B1, for which the Kd in assay [1] stood at 339 nM; in assay [2] it was 210 nM; in assay [3], 1.6 nM; in assay [5], 114 nM; in [6], 546 nM; in assay [7], 339 nM. For the same molecule, the Kd in assay [8] is 546 nM; in assay [9], 2930 nM; in assay [10], about 2.6 nM; in [11] it was about 40 nM. The binding result in assay [4] is reported as “no binding”.

B2: A2000Q (peptide)
peptide: PEDDWTEFSSEEIREQRQAAASHAPS
notes: also called AnkG A2000Q
On to B2, for which the figures for the Kd in [12] and in assay [6] were 741 nM and 8200 nM, respectively.

B3: W1989R (peptide)
peptide: PEDDRTEFSSEEIREARQAAASHAPS
notes: Untagged peptide used in ITC; m22 is its mCherry fusion; also called AnkG W1989R; AnkG WR
With B3, the binding result in [1], in [2], in [3] and in assay [6] was “no binding” in each case. Also, in assay [12], the Kd is about 12800 nM.

B4: I1997Q (peptide)
peptide: PEDDWTEFSSEEQREARQAAASHAPS
notes: also called AnkG I1997Q
With B4, the Kd is 68 nM in [12] and about 12500 nM in assay [6].

B5: AnkG E1991R (modified from rat 480 kD AnkG residues 1985-2010) (peptide)
peptide: PEDDWTRFSSEEIREARQAAASHAPS
notes: also called AnkG ER; Glu1991Arg AnkG LIR
For the molecule B5, the Kd in [2] was 8470 nM; in assay [3] it was 8.5 nM; in [12] it was 6.9 nM; in assay [6], 7190 nM. The “selectivity between GABARAP and LC3A” value in assay [13] is about 1000 fold. In assay [14], the “fold weaker binding against LGG-1” value was about 1000 fold. For the same molecule, the “fold lower affinity against AnkG LIR WT” value in [15] was about 10 fold.

B6: E1996R (peptide)
peptide: PEDDWTEFSSERIREARQAAASHAPS
notes: also called AnkG E1996R
Regarding B6, the results for the Kd in [12] and in assay [6] were 398 nM and about 100000 nM, respectively.

B7: AnkG LIR construct "1985-2000" (aa 2001-2010 truncated) (peptide)
peptide: PEDDWTEFSSEEIREA
Turning to B7, the results for the equilibrium dissociation constant (Kd) in assay [12] and in assay [6] were 510 nM and 7410 nM, respectively. Further, the “fold decrease of binding against AnkG LIR (aa 1985-2010)” value in assay [10] was about 200 fold.

B8: AnkB LIR (AnkB WT peptide, human 440 kD AnkB residues 1588-1614) (peptide)
peptide: VEEEWVIVSDEEIEEARQKAPLEITEY
As to B8, the Kd in [1] turned out to be 4.2 nM; in [3], 1.2 nM; in assay [16], 860 nM; in [17] it was 56 nM; in assay [18], 3.6 nM; in [19], 4.2 nM. Moreover, the Kd in [20] came to 10.5 nM; in assay [21], 0.21 nM; in assay [22] it was 0.29 nM. In addition, in assay [14], the binding result is given as “binds”.

B9: AnkB W1592R (peptide)
peptide: VEEERVIVSDEEIEEARQKAPLEITEY
notes: also called AnkB WR; Trp1592Arg mutant of AnkB LIR
On to B9, for which the Kd was over 100000 nM in assay [23], over 100000 nM in [24] and about 26600 nM in assay [18]. Moreover, the binding result in assay [14] and in assay [25] was “no binding” throughout.

B10: E1599R (peptide)
peptide: VEEEWVIVSDERIEEARQKAPLEITEY
notes: also called AnkB E1599R
Take B10: the Kd amounted to 38 nM in assay [24] and 312 nM in [18].

B11: AnkG LIR C-helix alone (aa 1993-2010) (peptide)
peptide: SSEEIREARQAAASHAPS
As to B11, the binding result in [6] and in [10] was “no binding” throughout.

B12: human FAM134B LIR without the C-helix extension (LIR-S, aa 448-461) (peptide, UniProt Q9H6L5 448-461, looked up)
peptide: DTEEGDDFELLDQS
notes: range 448-461; also called FAM134B LIR-S
In assay [26], B12 yielded a Kd of 704 nM.
